Measurements from patent US20150094271A1 (SAMSUNG ELECTRONICS, published 2015).
No end group written: not given here.

B1: HDMXNTD (N-terminal domain of HDMX, amino acid residues 1 to 132 of NP-001191100) (other, human, UniProt O15151 1-132, looked up)
chain: MTSFSTSAQCSTSDSACRISPGQINQVRPKLPLLKILHAAGAQGEMFTVKEVMHYLGQYIMVKQLYDQQEQHMVYCGGDLLGELLGRQSFSVKDPSPLYDMLRKNLVTLATATTDAAQTLALAQDHSMDIPS
notes: range 1-132; also called HDM4
B2: GST-p53LZ2 (leucine zipper variant p53LZ2, inventive, tagged with GST) (designed binder)
chain: RMKQLEDKVGELLFSNYWLELEVARLKKLV
modifications: not fully specified (N-terminus); also: parallel homodimer, GST junction linker letters not given here
notes: not shown: GST carrier (pGEX-4T3 vector) and its junction linker
B3: His6-HDMXNTD (other, human)
chain: HHHHHHMTSFSTSAQCSTSDSACRISPGQINQVRPKLPLLKILHAAGAQGEMFTVKEVMHYLGQYIMVKQLYDQQEQHMVYCGGDLLGELLGRQSFSVKDPSPLYDMLRKNLVTLATATTDAAQTLALAQDHSMDIPS
notes: range 1-132; Tag placed N-terminally by its name only
B4: His6-HDM2NTD (other, human)
chain: HHHHHHMCNTNMSVPTDGAVTTSQIPASEQETLVRPKPLLLKLLKSVGAQKDTYTMKEVLFYLGQYIMTKRLYDEKQQHIVYCSNDLLGDLFGVPSFSVKEHRKIYTMIYRNLVVVNQQESSDSGTSVSEN
notes: range 1-125; Tag placed N-terminally by its name only
B5: HDM2NTD (N-terminal domain of HDM2, amino acids 1 to 125 of NP-002383) (other, human, UniProt Q00987 1-125, looked up)
chain: MCNTNMSVPTDGAVTTSQIPASEQETLVRPKPLLLKLLKSVGAQKDTYTMKEVLFYLGQYIMTKRLYDEKQQHIVYCSNDLLGDLFGVPSFSVKEHRKIYTMIYRNLVVVNQQESSDSGTSVSEN
notes: range 1-125

What was measured:
GST [1] = biological target: T1, GST (UniProt P08515 1-218 = GST); assay: ELISA, HDMXNTD coated at 20 µg/ml, HRP anti-GST antibody, absorbance at 450 nm
T1 construct: Negative control in the pull-down; also called glutathione S-transferase tag alone (control)
T1 sequence (P08515 whole entry): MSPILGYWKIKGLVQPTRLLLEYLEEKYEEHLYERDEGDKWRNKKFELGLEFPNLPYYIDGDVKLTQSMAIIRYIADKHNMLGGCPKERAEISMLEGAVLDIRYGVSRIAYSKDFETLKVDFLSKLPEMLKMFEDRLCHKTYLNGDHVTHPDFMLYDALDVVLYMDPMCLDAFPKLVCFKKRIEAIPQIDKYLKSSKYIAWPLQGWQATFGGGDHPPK
Method: (§1) HDM2 or HDMX was diluted to a concentration of 20 μg/ml in a coating buffer (pH 9.6; 0.05M carbonate-bicarbonate buffer, pH 9.6 (Sigma-Aldrich)), applied to 96-well plates (Nunc, Maxisorp) and incubated overnight at 4° C. Then, the plates were treated with 300 μl of 3% skim milk w/PBS-T (room temperature, 3 hrs) to block the binding of other proteins. The 96-well plates were washed with 200 μL of PBS-T before each well was treated with serial dilutions of 0, 50, 100, 200, 400, 800, 1200, 1600, 2400, 3200, 4800, and 6400 nM of GST-WT p53, GST-p53LZ1, GST-p53LZ2, GST, pDIQ, and pMI.
(§2) After one hour of incubation, the plates were washed three times with 300 μL of PBS-T, and incubated at room temperature for 1 hr with 100 μL of an HRP conjugated-anti-GST antibody (Abcam, 1:2000). Thereafter, treatment with TMB substrate (Pierce, 100 μL) for 5 min developed a color. A stop solution (Pierce, 100 μL) was added, followed by reading absorbance at 450 nm on microwell reader (Molecular Device, Model: 340PC384).

[2] = biological target: B5; assay: ELISA, HDM2NTD coated at 20 µg/ml, HRP anti-GST antibody, absorbance at 450 nm
Method: as §1, §2

full-length HDM2 = biological target: T2, full-length HDM2 (human, UniProt Q00987 1-491); assay: ELISA, full-length HDM2 coated at 20 µg/ml, HRP anti-GST antibody, absorbance at 450 nm
T2 construct: mature
Method: as §1, §2

[3] = biological target: B1; assay: ELISA, HDMXNTD coated at 20 µg/ml, HRP anti-GST antibody, absorbance at 450 nm
Method: as §1, §2

[4] = biological target: B1; assay: ITC, p53LZ2 with HDMXNTD
[5] = biological target: B1; assay: ITC (FIG. 6)
[6] = biological target: B5; assay: ITC, 0.5 mM p53LZ2 injected into 0.03 mM HDM2NTD, PBS pH 7.4, 18 °C
Method: Meanwhile, the binding of p53LZ2 to HDM2 and HDMX was evaluated by ITC (isothermal titration calorimetry).

GST [7] = biological target: T1, GST; assay: GST pull-down on glutathione resin, 12% SDS-PAGE of the eluate
GST [8] = biological target: T1, GST; assay: ELISA, HDM2NTD coated at 20 µg/ml, HRP anti-GST antibody, absorbance at 450 nm
Method: as §1, §2

## B1
GST [1]
  binding result: no binding (tested: 6400 nM)

## B2
[2]
  EC50 (read off the curve): ~200 nM
full-length HDM2
  EC50 (read off the curve): ~300 nM
[3]
  EC50 (read off the curve): ~200 nM

## RMKQLEDKVGELLFSNYWLELEVARLKKLV (designed binder) [leucine zipper variant p53LZ2]
[4]
  -TΔS: 1.16 kcal/mol
  N: 0.65
  ΔH: -9.66 kcal/mol
[5]
  Kd: ~80 nM
[6]
  -TΔS: 1.48 kcal/mol
  Kd: 17.8 nM
  N: 0.65
  ΔH: -11.8 kcal/mol

## B3
GST [7]
  binding result: no binding

## B4
GST [7]
  binding result: no binding

## B5
GST [8]
  binding result: no binding (tested: 6400 nM)
